# Reference: the supplement of paper PMC9233669
# Fewer inactive variants are shown than the library holds.
# Experiments:
# [1] = system: biotinyl-Phe-oxazolone; test: self-aminoacylation, catalytic enhancement (BFO) (fold over background); higher = more active; k-Seq, kA / k0A0; sequences stand for … in GGGAAUGGAUCCACAUCUACGAAUUC…UUCACUGCAGACUUGACGAAGCUG
# Method in brief: (§1)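 Working in 50 μL HEPES/NaCl/KCl/MgCl2/CaCl2 buffer with 5% acetonitrile at pH 6.9–7.0, mutagenized RNA pools (0.43 μM; 21-nt variable region) were reacted with 2–1250 μM of each biotinyl-aminoacyl-oxazolone for 90 minutes at room temperature. Streptavidin capture followed, with quantification by triplicate qPCR and Illumina sequencing. Catalytic enhancement is reported as median kA over the uncatalyzed rate, the low-activity peak of a bimodal Gaussian fit to the data.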
# [2] = system: biotinyl-Ile-oxazolone; test: self-aminoacylation, catalytic enhancement (BIO) (fold over background); higher = more active; k-Seq, kA / k0A0; sequences stand for … in GGGAAUGGAUCCACAUCUACGAAUUC…UUCACUGCAGACUUGACGAAGCUG
# Method in brief: as §1
# [3] = system: biotinyl-Val-oxazolone; test: self-aminoacylation, catalytic enhancement (BVO) (fold over background); higher = more active; k-Seq, kA / k0A0; sequences stand for … in GGGAAUGGAUCCACAUCUACGAAUUC…UUCACUGCAGACUUGACGAAGCUG
# Method in brief: as §1
# [4] = system: biotinyl-Trp-oxazolone; test: self-aminoacylation, catalytic enhancement (BWO) (fold over background); higher = more active; k-Seq, kA / k0A0; sequences stand for … in GGGAAUGGAUCCACAUCUACGAAUUC…UUCACUGCAGACUUGACGAAGCUG
# Method in brief: as §1
# [5] = system: biotinyl-Leu-oxazolone; test: self-aminoacylation, catalytic enhancement (BLO) (fold over background); higher = more active; k-Seq, kA / k0A0; sequences stand for … in GGGAAUGGAUCCACAUCUACGAAUUC…UUCACUGCAGACUUGACGAAGCUG
# Method in brief: as §1
# [6] = system: biotinyl-Met-oxazolone; test: self-aminoacylation, catalytic enhancement (BMO) (fold over background); higher = more active; k-Seq, kA / k0A0; sequences stand for … in GGGAAUGGAUCCACAUCUACGAAUUC…UUCACUGCAGACUUGACGAAGCUG
# Method in brief: as §1
Sequence,self-aminoacylation [1],self-aminoacylation [2],self-aminoacylation [3],self-aminoacylation [4],self-aminoacylation [5],self-aminoacylation [6]
AUUCACCUCGGGCAUCGGGUG [Fam2.2 aminoacylation ribozyme variant],34.5,3.71,5.1,5.56,6.03,5.94
AUUAGCCUAGUCAUCGAGUGA [Fam2.1 aminoacylation ribozyme variant],4.14,2.47,2.18,3.09,2.79,2.65
CUACUUCAAACAAUCGUACUG [Fam1A.1 aminoacylation ribozyme variant],1.35,0.519,0.533,0.573,0.389,0.419
UUUACCCUGGUCAUCGGGUGA [Fam2.1 aminoacylation ribozyme variant],221,15.2,16.7,40.3,37.2,37.3
CUACUUGAAUCAAUCGGUCUG [Fam1A.1 aminoacylation ribozyme variant],0.466,0.857,0.782,0.582,0.705,0.811
AUUACCCUGGUCAUCGAGAGU [Fam2.1 aminoacylation ribozyme variant],1.79,0.803,1.02,0.568,0.822,0.991
AAGUAUGCUAAUAGUCGGAAG [Fam3.1 aminoacylation ribozyme variant],11.1,1.64,1.29,4.24,1.42,1.72
AUUGACCUAGGUCGUCGGGUG [Fam2.2 aminoacylation ribozyme variant],10.2,1.78,1.81,2.2,1.6,1.44
CCACACGUCAAGCAAUCGUUC [Fam1B.1 aminoacylation ribozyme variant],0.752,0.799,1.03,1.01,0.842,1.17
AUUCCCCUCGUCAUCGAGUGA [Fam2.1 aminoacylation ribozyme variant],15.8,3.49,3.46,5.17,4.4,4.49
AUUCCCCUGGUCAUAGAGUGA [Fam2.1 aminoacylation ribozyme variant],70.9,5.4,5.89,13.1,10.1,10
CUACUUCAUACAAACGGUCUG [Fam1A.1 aminoacylation ribozyme variant],1.06,0.936,0.803,0.536,0.652,0.725
AUUCACCUAGGUCACCAGGUG [Fam2.2 aminoacylation ribozyme variant],1.24,1.51,1.49,1.64,1.61,1.51
UCCCACUUCAAGCAAUCGGUC [Fam1B.1 aminoacylation ribozyme variant],37,1.28,1.73,22.3,1.59,1.46
AUCCACCUAGGUCAUCAGGUG [Fam2.2 aminoacylation ribozyme variant],4.11,1.51,1.74,2.64,1.82,1.74
CCACUCUUCAAGCAGUCGGUC [Fam1B.1 aminoacylation ribozyme variant],1.07,1.04,1.1,1.28,1.24,1.03
AAGUUUGCUAAAAGUCUCAAG [Fam3.1 aminoacylation ribozyme variant],4.24,1.11,0.996,1.45,0.875,1.24
CUACUUCGAACACUCGGUCUG [Fam1A.1 aminoacylation ribozyme variant],3.18,1.02,1.18,1,1.32,1.04
CCACACUACAAUCAAUCGGUC [Fam1B.1 aminoacylation ribozyme variant],1.18,0.797,0.877,0.811,0.688,0.663
GUUCACCAAGGUCAUCGGGUG [Fam2.2 aminoacylation ribozyme variant],64.7,4.16,4.45,6,8.83,6.5
AUUACCCUGGUCAUCGAGUCU [Fam2.1 aminoacylation ribozyme variant],0.56,0.697,0.901,0.846,0.712,0.784
CCACACUUCGAGCGAUCGGUC [Fam1B.1 aminoacylation ribozyme variant],2.95,1.43,1.69,1.38,1.86,1.64
AUUACCUUGGGCAUCGAGUGA [Fam2.1 aminoacylation ribozyme variant],17.4,2.87,2.91,6.65,5.27,5.33
AAGUUUUCUAAUAGUCGCAGG [Fam3.1 aminoacylation ribozyme variant],3.74,1.59,1.52,2.19,1.55,1.6
AUUCACCUUGGUCAUCGAGUG [Fam2.2 aminoacylation ribozyme variant],8.55,2.69,2.49,3.59,4.66,3.96
CUACCUCAAACAAUCGGUCUU [Fam1A.1 aminoacylation ribozyme variant],1.34,0.996,0.865,1.65,0.784,0.623

Sequence,self-aminoacylation [1],self-aminoacylation [2],self-aminoacylation [3],self-aminoacylation [4],self-aminoacylation [5],self-aminoacylation [6]
CUCCUUCAAACGAUCGGUCUG [Fam1A.1 aminoacylation ribozyme variant],1.86,0.833,0.925,2.2,1.21,0.833
AUUACCCUAGGCAUCGAGUGA [Fam2.1 aminoacylation ribozyme variant],18.1,2.47,2.68,6.47,5.37,5.3
AUUCACCGAGGUCAUCGAGUG [Fam2.2 aminoacylation ribozyme variant],12.6,1.75,2.17,2.82,3.6,2.89
CUACUUCAACCAAACGGUCUG [Fam1A.1 aminoacylation ribozyme variant],0.71,0.745,0.86,0.55,0.871,0.704
CUACUUCCAACAAUCCGUCUG [Fam1A.1 aminoacylation ribozyme variant],0.668,0.794,0.886,0.524,0.999,0.771
AUUAACCUAGGUCAGCGGGUG [Fam2.2 aminoacylation ribozyme variant],19,2.5,2.12,2.72,4.4,2.59
CCACACUUCAAGCUCUCGGUC [Fam1B.1 aminoacylation ribozyme variant],0.716,1.21,1.42,1.1,1.25,1.14
CUACUUCAAACAAUCGGGCCG [Fam1A.1 aminoacylation ribozyme variant],1.76,1.53,0.974,1.22,1.32,1.19
AUUACCCUGGUCAGCGAGUGA [Fam2.1 aminoacylation ribozyme variant],16.6,2.92,3.01,5.36,4.71,4.42
AUUCAGCUAGGUGAUCGGGUG [Fam2.2 aminoacylation ribozyme variant],25.3,3.84,4.04,4.6,5.32,4.52
GACUUUGCUAAUAGUCGCAAG [Fam3.1 aminoacylation ribozyme variant],2.88,1.74,1.72,1.97,1.85,2.11
AAGUUUGGUAAUAGUCCCAAG [Fam3.1 aminoacylation ribozyme variant],1.39,1.32,0.864,1.04,0.963,1.05
CCACACUUCUAGCAACCGGUC [Fam1B.1 aminoacylation ribozyme variant],0.818,0.817,0.946,0.402,0.868,0.681
AUUCACCUAGUUCAGCGGGUG [Fam2.2 aminoacylation ribozyme variant],15.9,2.07,2.28,2.62,3.34,2.76
AAGUUUGCUAAUAGUUGGAAG [Fam3.1 aminoacylation ribozyme variant],1.47,1.29,1.25,0.896,1.21,1.38
AUUUCCCUGGUCAUUGAGUGA [Fam2.1 aminoacylation ribozyme variant],63.1,4.47,4.4,10,8.38,8.36
AUUAACCUGGUCAUCCAGUGA [Fam2.1 aminoacylation ribozyme variant],18.6,2.38,2.56,5.64,4.45,4.16
CUACUUCAAACAAUCAGUCUC [Fam1A.1 aminoacylation ribozyme variant],25.9,0.833,0.904,8,0.872,0.723
CCACACUUCAAGCAUGCGGUC [Fam1B.1 aminoacylation ribozyme variant],0.814,1.41,2.27,2.22,1.62,1.57
AUUACCCUGGUCAUCGAAUAA [Fam2.1 aminoacylation ribozyme variant],0.904,0.801,1.15,1.41,0.914,0.987
CCACAGUUCAAGCAAUCGUUC [Fam1B.1 aminoacylation ribozyme variant],0.594,0.771,0.845,0.472,0.743,0.742
CAACUUCAAAAAAUCGGUCUG [Fam1A.1 aminoacylation ribozyme variant],14.8,1.7,1.31,11.9,1.46,1.15
AUUGCCCUGGUCACCGAGUGA [Fam2.1 aminoacylation ribozyme variant],70,3.77,4.68,9.72,10.8,9.41
AUUCACCUAGGGCAGCGGGUG [Fam2.2 aminoacylation ribozyme variant],39.8,5.78,4.76,7.98,7.39,7.29
CUACUUCAUACAAUCGUUCUG [Fam1A.1 aminoacylation ribozyme variant],0.733,0.535,0.655,0.371,0.477,0.476
